In this experiment the target is T1, HIV-1 p55gag precursor polyprotein (HIV-1, UniProt P04591 1-500).
T1 construct: In vitro translated control protein
The experiment can be described thus: coimmunoprecipitation of 35S-labeled in vitro translated proteins, SDS-PAGE.

Consider one molecule from patent US20030143735A1 (University of Pennsylvania, published 2003).

B1: human Vpr Interacting Protein (hVIP), 35S-labeled, in vitro translated (other)
chain: MHARAAASVMDICRIRLDHAVSMSTFFFFLSSGMEVDAAVVPSVMACGVTGSVSVALHPLVILNISDHWIRMRSHQGRPVQVIGALIGKQEGRNIEVMNSFELLSHTVEEKIIIDKEYYYTKEEQFKQVFKELEFLGWYTTGGPPDPSDIHVHKQCCEIIESPLFLKLNPMTKHTDLPVSVFESVIDIINGEATMLFAELTYTLATEEAERIGVDHVARMTATGSGENSTVAEHLIAQHSAIKMLHSRVKLILEYVKASEAGEVPFNHEILREAYALCHCLPVLSTDKFKTDFYDQCNDVGLMAYLGTITKTCNTMNQFVNKFNVLYDRQGIGRRMRGLFF
modifications: 35S radiolabel
notes: In vitro translated hVIP of the coimmunoprecipitation assay; Anti-Express antibody was among the antibodies used, so it may have
On to B1, for which the binding result was “no binding”.
